Measurements from PMC13365404 (npj Viruses, 2026).

Tests used:
Conditions in all cases: one partner purified
[1] = target: T1, BDBV GP, full-length transmembrane glycoprotein expressed on MDCK SIAT-1 cells (Bundibugyo virus, Butalya-811250 …, UniProt B8XCN0); assay: immunoprecipitation
[2] = target: T2, TAFV GP, full-length transmembrane glycoprotein expressed on MDCK SIAT-1 cells (Taï Forest virus (YP_003815426.1), UniProt Q66810); assay: immunoprecipitation
[3] = target: RESTV GP expressed on MDCK SIAT-1 cells (Reston virus, isolate ; …, UniProt Q66799); assay: immunostaining of cells or tissue
[4] = target: T3, EBOV GP (Mayinga), full-length transmembrane glycoprotein expressed on MDCK SIAT-1 cells (Ebola virus, Mayinga (NP_066246.1), UniProt Q05320); assay: immunostaining of cells or tissue
[5] = target: T4, SUDV GP, full-length transmembrane glycoprotein expressed on MDCK SIAT-1 cells (Sudan virus, Gulu 2000 (YP_138523.1), UniProt Q7T9D9); assay: immunostaining of cells or tissue
T4 construct: source: MDCK SIAT-1 cell line expressing GP (generated previously), on the cell surface

[6] = target: T3, EBOV GP (Mayinga), full-length …; assay: immunoprecipitation
[7] = target: T1, BDBV GP, full-length transmembrane …; assay: immunostaining of cells or tissue
[8] = target: T2, TAFV GP, full-length transmembrane …; assay: immunostaining of cells or tissue

Measured: binding result

B1: mAb 11886 (recombinant rabbit IgG) (antibody, V domains shown)
VH: QSVEESGGRLVTPGTPLTLTCIVSGFSLSNYYMSWVRQVPGKGLEWIGVIGWSGTSSYASWAKGRFTISKTASTTVDLKITSPTTEDTATYFCARVLYIGGGFNYYDAFDPWGPGTLVTVS
VL: DVVMTQTPASVSEPVGGTVTIKCQASQSIGSNLAWYQQKPGQPPKLLIYAASTLASGVPSRFKGSGSGTEFTLTISDLECADAATYYCQCTYYDSSYVYNNFGGGTEVVVK
notes: source: HEK293F, transfected, purified (Protein A)
binds: [1] | [2] | [3] | [4] | [5]

B2: mAb 11883 (recombinant rabbit IgG) (antibody, V domains shown)
VH: QEQLVESGGGLVQPEGSLTLTCTASGFSFSSNCWRCWVRQAPGKGLEWIACVCAGRSGGTTYYASWAKGRFTISKTSSPTVTLQMTSLTAADTATYFCARAGYDDYGDASFFNLWGPGTLVTVS
VL: AVVLTQTASPVSTPVGGTVTIKCQASQNIYSNLAWYQQKPGQPPKLLIYSASTLASGVPSRFKGSGSGTEYTLTISDLECADAATYYCQRYYYLSGSADNTFGGGTEVVVK
notes: as for B1
binds: [6] | [3] | [5] | [7] | [8]
